Non-standard residues stand in square brackets, D forms with d. No end group written: not given here. *: point of attachment. Phe(4-NH2) = Nc1ccc(C[C@H](N)C(=O)O)cc1; Morpholinocarbonyl = O=C(N1CCOCC1)*; hArg = N=C(N)NCCCC[C@H](N)C(=O)O; 4Pal = N[C@@H](Cc1ccncc1)C(=O)O; Cha = N[C@@H](CC1CCCCC1)C(=O)O; 4Amb = NCc1ccc(C(=O)O)cc1; Orn = NCCC[C@H](N)C(=O)O; Ac3c = NC1(C(=O)O)CC1; Aib = CC(C)(N)C(=O)O
T1: human Y2 receptor (human, UniProt P49146 1-381)
T1 sequence (looked up): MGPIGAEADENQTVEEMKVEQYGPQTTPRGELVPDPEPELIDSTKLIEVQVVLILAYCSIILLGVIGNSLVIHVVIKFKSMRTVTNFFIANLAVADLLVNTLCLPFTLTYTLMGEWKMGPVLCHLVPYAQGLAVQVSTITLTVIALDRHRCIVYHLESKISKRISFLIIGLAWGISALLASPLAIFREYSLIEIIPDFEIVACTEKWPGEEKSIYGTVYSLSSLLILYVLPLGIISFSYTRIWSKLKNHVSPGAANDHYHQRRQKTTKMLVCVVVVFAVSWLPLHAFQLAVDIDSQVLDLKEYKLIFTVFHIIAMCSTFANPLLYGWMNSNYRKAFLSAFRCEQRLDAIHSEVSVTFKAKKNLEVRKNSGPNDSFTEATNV


Assays:
human Y2 receptor [1] = molecular target: T1, human Y2 receptor; assay: cell-based or functional assay
human Y2 receptor [2] = molecular target: T1, human Y2 receptor; assay: RBA: [125I]-PYY displacement, hY2R/CHO membranes
Description: After incubation at room temperature for 60 minutes, the mixture was filtered through the cell harvester FilterMate (PerkinElmer) using UniFilter-96 GF/C treated with polyethylenimine (PEI) solution (20 mM Tris, 0.3% PEI, pH 7.4), and the filter was washed 3 times with a filtering buffer (50 mM Tris, 5 mM MgCl₂, 150 mM NaCl, 0.03% NaN₃, 0.05% CHAPS, pH 7.4). Thereafter, UniFilter-96 GF/C was dried in a mechanical drier for 1 hour, 15 μl of the liquid scintillator MicroScint O (PerkinElmer) was added to each well, and a measurement was taken using TopCount (PerkinElmer). The data obtained were analyzed using Prism to calculate the IC₅₀ value.

| Binder | GBA EC50 Ratio (vs PYY(3-36)), [35S]GTPγS (human Y2 receptor [1]) [ratio] | IC50 Ratio (vs PYY(3-36)) (human Y2 receptor [2]) [ratio] |
| --- | --- | --- |
| Ac-S[dP]RH[Cha][Cha]NL[Aib]TRQRY-NH2 (SMILES CC(=O)N[C@@H](CO)C(=O)N1CCC[C@@H]1C(=O)N[C@@H](CCCNC(=N)N)C(=O)N[C@@H](Cc1c[nH]cn1)C(=O)N[C@@H](CC1CCCCC1)C(=O)N[C@@H](CC1CCCCC1)C(=O)N[C@@H](CC(N)=O)C(=O)N[C@@H](CC(C)C)C(=O)NC(C)(C)C(=O)N[C@H](C(=O)N[C@@H](CCCNC(=N)N)C(=O)N[C@@H](CCC(N)=O)C(=O)N[C@@H](CCCNC(=N)N)C(=O)N[C@@H](Cc1ccc(O)cc1)C(N)=O)[C@@H](C)O, also called compound No. 142) [Ac-[D-Pro24, Cha27,28, Aib31]-PYY(23-36)] | 1.1 | 3.2 |
| Ac-S[dP]RH[Cha][Cha]NL[Aib]TRQRF-NH2 (SMILES CC(=O)N[C@@H](CO)C(=O)N1CCC[C@@H]1C(=O)N[C@@H](CCCNC(=N)N)C(=O)N[C@@H](Cc1c[nH]cn1)C(=O)N[C@@H](CC1CCCCC1)C(=O)N[C@@H](CC1CCCCC1)C(=O)N[C@@H](CC(N)=O)C(=O)N[C@@H](CC(C)C)C(=O)NC(C)(C)C(=O)N[C@H](C(=O)N[C@@H](CCCNC(=N)N)C(=O)N[C@@H](CCC(N)=O)C(=O)N[C@@H](CCCNC(=N)N)C(=O)N[C@@H](Cc1ccccc1)C(N)=O)[C@@H](C)O, also called compound No. 143) [Ac-[D-Pro24, Cha27,28, Aib31, Phe36]-PYY(23-36)] | 0.85 | 2.9 |
| Ac-S[dP]RH[Cha][Cha]NL[Ac3c]TRQR[Cha]-NH2 (SMILES CC(=O)N[C@@H](CO)C(=O)N1CCC[C@@H]1C(=O)N[C@@H](CCCNC(=N)N)C(=O)N[C@@H](Cc1c[nH]cn1)C(=O)N[C@@H](CC1CCCCC1)C(=O)N[C@@H](CC1CCCCC1)C(=O)N[C@@H](CC(N)=O)C(=O)N[C@@H](CC(C)C)C(=O)NC1(C(=O)N[C@H](C(=O)N[C@@H](CCCNC(=N)N)C(=O)N[C@@H](CCC(N)=O)C(=O)N[C@@H](CCCNC(=N)N)C(=O)N[C@@H](CC2CCCCC2)C(N)=O)[C@@H](C)O)CC1, also called compound No. 131) [Ac-[D-Pro24, Cha27,28,36, Acpc31]-PYY(23-36)] | 3.6 | 7 |
| Morpholinocarbonyl-E[dP]RH[Cha][Cha]NL[Aib]TRQR[Cha]-NH2 (SMILES CC(C)C[C@H](NC(=O)[C@H](CC(N)=O)NC(=O)[C@H](CC1CCCCC1)NC(=O)[C@H](CC1CCCCC1)NC(=O)[C@H](Cc1c[nH]cn1)NC(=O)[C@H](CCCNC(=N)N)NC(=O)[C@H]1CCCN1C(=O)[C@H](CCC(=O)O)NC(=O)N1CCOCC1)C(=O)NC(C)(C)C(=O)N[C@H](C(=O)N[C@@H](CCCNC(=N)N)C(=O)N[C@@H](CCC(N)=O)C(=O)N[C@@H](CCCNC(=N)N)C(=O)N[C@@H](CC1CCCCC1)C(N)=O)[C@@H](C)O, also called compound No. 174) [Morpholinocarbonyl-[Glu23, D-Pro24, Cha27,28,36, Aib31]-PYY(23-36)] | 1 | 1.9 |
| Morpholinocarbonyl-E[dP]RH[Cha][Cha]NK[Aib]TRQR[Cha]-NH2 (SMILES C[C@@H](O)[C@H](NC(=O)C(C)(C)NC(=O)[C@H](CCCCN)NC(=O)[C@H](CC(N)=O)NC(=O)[C@H](CC1CCCCC1)NC(=O)[C@H](CC1CCCCC1)NC(=O)[C@H](Cc1c[nH]cn1)NC(=O)[C@H](CCCNC(=N)N)NC(=O)[C@H]1CCCN1C(=O)[C@H](CCC(=O)O)NC(=O)N1CCOCC1)C(=O)N[C@@H](CCCNC(=N)N)C(=O)N[C@@H](CCC(N)=O)C(=O)N[C@@H](CCCNC(=N)N)C(=O)N[C@@H](CC1CCCCC1)C(N)=O, also called compound No. 191) [Morpholinocarbonyl-[Glu23, D-Pro24, Cha27,28,36, Lys30, Aib31]-PYY(23-36)] | 1.4 | 1.4 |
| Ac-GLRH[Cha][Cha]NL[Aib]TRQR[Cha]-NH2 (also: Gly1-Leu2 amide bond replaced by (E)-CH=CH alkene, -CONH- bond between Gly23 and Leu24 is substituted by (E) type alkene; also called compound No. 122) [Ac-[Gly23-ψ[(E)-CH═CH]-Leu24, Cha27,28,36, Aib31]-PYY(23-36)] | 14 | 17 |
| [4Amb][Orn]AYINLITRQRY-NH2 (N-terminus assumed; SMILES CC[C@H](C)[C@H](NC(=O)[C@H](Cc1ccc(O)cc1)NC(=O)[C@H](C)NC(=O)[C@H](CCCN)NC(=O)c1ccc(CN)cc1)C(=O)N[C@@H](CC(N)=O)C(=O)N[C@@H](CC(C)C)C(=O)N[C@H](C(=O)N[C@H](C(=O)N[C@@H](CCCNC(=N)N)C(=O)N[C@@H](CCC(N)=O)C(=O)N[C@@H](CCCNC(=N)N)C(=O)N[C@@H](Cc1ccc(O)cc1)C(N)=O)[C@@H](C)O)[C@@H](C)CC, also called compound No. 10) [4-Aminomethylbenzoyl-[Orn25, Ala26, Ile28,31]-PYY(25-36)] | 18 | 39 |
| Ac-E[dP]R[4Pal][Cha]YNK[Aib]TRQR[Cha]-NH2 (SMILES CC(=O)N[C@@H](CCC(=O)O)C(=O)N1CCC[C@@H]1C(=O)N[C@@H](CCCNC(=N)N)C(=O)N[C@@H](Cc1ccncc1)C(=O)N[C@@H](CC1CCCCC1)C(=O)N[C@@H](Cc1ccc(O)cc1)C(=O)N[C@@H](CC(N)=O)C(=O)N[C@@H](CCCCN)C(=O)NC(C)(C)C(=O)N[C@H](C(=O)N[C@@H](CCCNC(=N)N)C(=O)N[C@@H](CCC(N)=O)C(=O)N[C@@H](CCCNC(=N)N)C(=O)N[C@@H](CC1CCCCC1)C(N)=O)[C@@H](C)O, also called compound No. 139) [Ac-[Glu23, D-Pro24, Pya(4)26, Cha27,36, Tyr28, Lys30, Aib31]-PYY(23-36)] | 1.2 | 2.2 |
| [4Amb]RAYINLITRQR[Phe(4-NH2)]-NH2 (N-terminus assumed; SMILES CC[C@H](C)[C@H](NC(=O)[C@H](Cc1ccc(O)cc1)NC(=O)[C@H](C)NC(=O)[C@H](CCCNC(=N)N)NC(=O)c1ccc(CN)cc1)C(=O)N[C@@H](CC(N)=O)C(=O)N[C@@H](CC(C)C)C(=O)N[C@H](C(=O)N[C@H](C(=O)N[C@@H](CCCNC(=N)N)C(=O)N[C@@H](CCC(N)=O)C(=O)N[C@@H](CCCNC(=N)N)C(=O)N[C@@H](Cc1ccc(N)cc1)C(N)=O)[C@@H](C)O)[C@@H](C)CC, also called compound No. 12) [4-Aminomethylbenzoyl-[Ala26, Ile28,31, Phe(4NH2)36]-PYY(25-36)] | 5 | 12 |
| [4Amb]RAYINLIT[hArg]QRY-NH2 (N-terminus assumed; SMILES CC[C@H](C)[C@H](NC(=O)[C@H](Cc1ccc(O)cc1)NC(=O)[C@H](C)NC(=O)[C@H](CCCNC(=N)N)NC(=O)c1ccc(CN)cc1)C(=O)N[C@@H](CC(N)=O)C(=O)N[C@@H](CC(C)C)C(=O)N[C@H](C(=O)N[C@H](C(=O)N[C@@H](CCCCNC(=N)N)C(=O)N[C@@H](CCC(N)=O)C(=O)N[C@@H](CCCNC(=N)N)C(=O)N[C@@H](Cc1ccc(O)cc1)C(N)=O)[C@@H](C)O)[C@@H](C)CC, also called compound No. 11) [4-Aminomethylbenzoyl-[Ala26, Ile28,31, Har33]-PYY(25-36)] | 63 | 260 |
| Ac-[dY]AS[dP]RH[Cha][Cha]NL[Aib]TRQR[Cha]-NH2 (SMILES CC(=O)N[C@H](Cc1ccc(O)cc1)C(=O)N[C@@H](C)C(=O)N[C@@H](CO)C(=O)N1CCC[C@@H]1C(=O)N[C@@H](CCCNC(=N)N)C(=O)N[C@@H](Cc1c[nH]cn1)C(=O)N[C@@H](CC1CCCCC1)C(=O)N[C@@H](CC1CCCCC1)C(=O)N[C@@H](CC(N)=O)C(=O)N[C@@H](CC(C)C)C(=O)NC(C)(C)C(=O)N[C@H](C(=O)N[C@@H](CCCNC(=N)N)C(=O)N[C@@H](CCC(N)=O)C(=O)N[C@@H](CCCNC(=N)N)C(=O)N[C@@H](CC1CCCCC1)C(N)=O)[C@@H](C)O, also called compound No. 121) [Ac-[D-Tyr21, D-Pro24, Cha27,28,36, Aib31]-PYY(21-36)] | 1.3 | 1.2 |
